Measurements as given in the domain aggregation screens of Martell et al. (2025).

Test: soluble fraction after stress (log2 fold change); higher = more stays soluble; pooled small domains, quantitative proteomics
Conditions: stress: 75 degC
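Also: 20 min heating vs room temperature control held 20 min.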

## HMAPAPDEAFAEFVRSSAPSLTRTAWLLTGDRGHAQDLVQNAYAKTLQAWGRLDAEGALAYTRRAVIT
  soluble fraction (log2): 0.174

## HMGAVQFAEQKIHIGSRWIGKKISEFSAESDAFVILIKRGSEVVIPRGPTDIVENDVLVIHVPD
  soluble fraction (log2): -3.05

## HMFEFFKGIYSISLLKKDGIFFVTFKDENKEAVKHIFPEKPTALELGIKVMEMFEYKERYDGII
  soluble fraction (log2): -0.455

## HMKGSIMIETILKELKKNNKGFNFLLEKFDISEDELMKIINDLIHDKKVFLNSNNKYEIVSD
  soluble fraction (log2): -0.72

## HMKQNNYATKKELNFFVSRLISLLSYRDFFNPIEKKESMINNIEAIFTRSSLTSQELRTLHGIISNLVE
  soluble fraction (log2): -3.57

## HMDLSPEQAELAAIRGELGIKIDDYALALNIPRDRLTSYLYGRANVPAEVLISARELRYASSA
  soluble fraction (log2): -0.0206

## HMFNISEKLKKYRNALGLTQTEVAEKIEITKPTYASYEKGKDISIGTLKKLADLFEVSFESFFSE
  soluble fraction (log2): -0.283

## HMGTRPIQIASFSKEENAKRAVEALAKIGITAQPQKSGSATKAVWGVVANGDADLLAKIKAAGFADAYFL
  soluble fraction (log2): 0.0154

## HMVMAELRISVDRLQIGNYIKLPLSWRDHPFLLSSFMIKKEEQIQLIRQLRLKHVFIIPEKSDAPPKPA
  soluble fraction (log2): -4.2

## HMDEAAGVLTQLRAFIAASNLSPGLRLPPERELAEQLGVTRAELRKALAVLEAEGLLWRQVGKGTFYGARP
  soluble fraction (log2): -1.35

## HMEAEMLYQVKVKITNLVIRSGAGAIYPIVKRYASGVLPIYEEKNGYGKIAVGQWISLSPEFVERVD
  soluble fraction (log2): -3.13

## HMEEEPALLRDLLAKTLEFGLIPQLSHHPALADRTQQLASAVRAAGSASALRNAAASLKSLWIDVDQ
  soluble fraction (log2): -0.0158

## HMPTTTFENLPDAKKKTIIAALLKEFSQSPLSKAQVAPIVKESQIARGAFYKYFVDLTDAYTYLYRQ
  soluble fraction (log2): -0.0519

## HMTYQTVRYGSTGSAVRQLQSALNQKGYQLSEDGIFGAKTRAAVRDYQKKNGLLLDGIAGSQTWNHLMS
  soluble fraction (log2): -0.179

## HMSDDSYLVALAEAYKNATSWDIRRQVLSIMTGVSSYKEISRYIPGLTQYRLSISNLHRLQYGRAAPVP
  soluble fraction (log2): 0.0264

## HMENLIEELTAKNKEYIHSVTKQLILVGKSDEEVKEILNDILPQIIEGQKSGIIARKLLGAPTEFVSQYQP
  soluble fraction (log2): -0.269

## HMAALTADEAKQIALKHAGVAESDVQRLKVEQDRDDGRLLYEVEWDVGRTEYSYEIDANTGDILNYEKDV
  soluble fraction (log2): -0.000944

## HMSMDAVSLANRLLRFFQKRPGRKFTAADLAFETGMNERTGKSLVTSALEILSRTNQIEADGDGFRLKM
  soluble fraction (log2): 0.0354

## HMIPNEKEAARWDALTAEHTAKLNALEGDALDKVGSHEDVSIKRAGVGDAAFREKILSRTHPDDLERALST
  soluble fraction (log2): -0.0132

## HMIVVTSPQVTDERIAEIVAFIEKHGVQAHVSRGTDRTVIGIIGKADPVLAEHLRSMQGVENVIKIS
  soluble fraction (log2): -0.167

## HMYNKKAYVNTNSDFLNVRSEASTESSVVDKLARGTEVNIVGNIQNGFYPIVLNEKNAWVSSDWISFEKPT
  soluble fraction (log2): 0.053

## HMDINMELGKNIRRLRKLNNLTQQSLANQMNRSKTLIALWEKGERDPSSIDLKRLSEIFNVRADDIIG
  soluble fraction (log2): -0.799

## HMEEPEELYRVKILIYNLLVRNGPGILYTRLRRADYPGEYGIYEEKNGYGKISATLSEWISLNTEYVQRLD
  soluble fraction (log2): -3.72

## HMGFVATRSRKFLPFSEARAITRGLGFSNQKDYKEWIKGNGNELLLPFNPWRTYGDSGWKGWKDFLGTDKA
  soluble fraction (log2): -1.39

## HMSSEITYDKFIEMVEEGNVKEVTLQSDTLTIKPKHQDSAFSEKEYYTRQMESADQLTERLEGTGIEFHS
  soluble fraction (log2): 0.119

## HMDQFMLQSAWLRAVQHVMKHTDDVGTQFAEEARRMHYGEADERPIRGQATSDEARALHDEGIEVMALPI
  soluble fraction (log2): -0.36

## HMPLITDIKIQVKNTEKVSLFVDGKYSFSLTISQLAEHKILKTNQEISAKQVAEFKKLSNLTNLYIRIVG
  soluble fraction (log2): -0.305

## HMEARYQLREVSLDGLRSGMILNADVLSTDGVLMARKGLEVSGLLRSRLEAFAKMERIEPTFKVLVPIAPP
  soluble fraction (log2): -2.19

## HMSDEVNTDKAFRAIDSTLNRNVKGIAPRDHTLLRNTMITYFKSNDYIDYDTMIQSTLENYKPTELEQDKM
  soluble fraction (log2): 0.0497

## HMALKPKITIEELIRILNESKDLSDSETAKILNKDYTTAKYGKEFTSINVQGARYALDIATNTS
  soluble fraction (log2): -0.145

## HMFDFNNLSSLSDVELSVYRFVVNNPEKVAYMRVRDIAQKTHVANSSVMRFVHKIGFASFPEFKAYLKNIN
  soluble fraction (log2): -0.997

## HMEADERRNEILDAAETLITEKGYSKTTIIDILNQVGIAKGTFYYYFKSKEEVMDAIIERFI
  soluble fraction (log2): -2.41

## HMTEDTPIIVERVVADIDENVVAIVRKFKDAFKSITAQREIKKKLRSILWVNYQIKDQEVFDKAYQYIEMY
  soluble fraction (log2): 0.241

## HMIHMNMGQKINQLRLQKGFTLEELGNLVGVGKSTVRKWENGMIANMKRDKILLVAEALDTSPAYLMGWD
  soluble fraction (log2): -2.12

## HMNVRRSRTHEKVTTYQGYDIFINKEPNQRGMFTSAPMRGDNEYSNLRGEGKSKQDAVNMTKEKIDEIAA
  soluble fraction (log2): 0.748

## HMIEQEQAFLEQVLKKYSQEELVLTVGSRTLVKYSAGQLERLLEHYPHVRLASSPVNGEAGFLLSRG
  soluble fraction (log2): -0.0614

## HMSEYLDIHMAMEKLNRKEQLFVHLRFYEGLTQSEIAQRLFTSQVQISRLEKSVLEKMRQILSK
  soluble fraction (log2): -2.2

## HMENLSGNDIKYLRKKYNLTQKELADALGLQKFGDRTIRRWEAEETHPSKLEQSSIQSFFNSLK
  soluble fraction (log2): -0.0716

## HMENVVESIYNKMVESITNGQWAAGSKIPTENELAKTYQVSRSSVRQAISRLKALGLLESRQGSGTVIKK
  soluble fraction (log2): -0.0436

## HMEGNFFADIRQELMRELDQEAEWSDVQILEKIDDLVLLRTRRSSLTVNEKEQLRKELFYSVRK
  soluble fraction (log2): -0.345

## HMSKTQYTFKEVGSQFQLFAPSTKHTIMISADHPKYGWLTNQDQGRVINVYDTGKMTSSQDYYGLYKEVT
  soluble fraction (log2): 0.587

## HMKGTVLAPGIILNADDQRFTYLQEDVASVAKDGAAIVLKQGDEVDFIADGQTAKQIYLTKT
  soluble fraction (log2): 0.289

## HMKLVTIPNVIGKTKEDAMKTLKDLGVTVTVETKESEKDDGTVIAQSKAEGTKLTAGENVTITVSKKKK
  soluble fraction (log2): ≥ 1.04

## HMVAQEVPYSTFVMRLDRNEVDAVKIIDGNEIEGTFKSPNGDLVQFKTLIPYQDTELMPLLKQKGVRISGS
  soluble fraction (log2): 0.427

## HMISSRDAAVIGLVENIQRAQLNAIDESSGFKHLMETYNLESKEIALLVGKSRSYVSNSLRLSK
  soluble fraction (log2): 0.124

## HMRVQELARDLGVEADTLIALLRQMGIPVTGARSAINDAQQAKVLAKIERERRAGHSDPAKAIQAVLEEAS
  soluble fraction (log2): 0.00503

## HMTTGTVKWFNDAKGFGFITPDDRSVDVFVHYSNIVGQSGRRTLMEGERVEYEAIEGPKGPQATDVARA
  soluble fraction (log2): -0.223

## HMSNLNHSFQYKKNIGRKISLTYLGRDNESISKIYELIDSNDSGILVKNKNVEIFIHYEKIVSAKIKVS
  soluble fraction (log2): -1.78

## HMSDAQIKASINDLWFKYNLETFAKLNLNVNQGRVLVTGIVQNPEHRLEAIRLVWTVDGVQQVINEIQVAE
  soluble fraction (log2): -2.33

## HMRPQYVDLFTKLSAEEAGAITSKLKELKVEYQLADNGSTIKVPQKDAAEIRLELANEGLPA
  soluble fraction (log2): 0.138

## HMPTVLKQGSTGQEVKELQQALSKLGYRVTVTGEFDTATHYGVVRFQRKHRLTIDGIVGPQTLSKIRAHQK
  soluble fraction (log2): -2.56

## HMDRGDVTREALIKAAIEIFGRDGFHAASTRAIAERAGANQALIGYHFRGKLGLYHATFEYIIGKI
  soluble fraction (log2): -0.351

## HMKNKRERLGIISEILRMQVIGSQEELLDILRAKGYDVTQATLSRDLKVLKVAKTPLSNGAYKYVLPPQ
  soluble fraction (log2): -1.39

## HMAIGERIRFLRTLRRMTQKELGLAAGFPEKNASIRMAQYENGTRTPKAELTAVLAEILKVSPQALTV
  soluble fraction (log2): -1.52

## HMELMKPPGYWQSLENAIYESKKVIKEHGFDTLPSSNKLRELDYHGLSRAISVHHSGFPNFREIMNQELGI
  soluble fraction (log2): -0.00652

## HMPNGEAYQRFTYENDILEGRFEEWDSLGTDIVKGDYTAGVRHKKWLYYDSEGRRDKFVFLDMDSI
  soluble fraction (log2): 0.116

## HMEATVGSRVRLARIGLTLTQKQLAQAVGVSANHLAMVERGSKHASEDLLQRIATATHTTYEWLMGTSEHQ
  soluble fraction (log2): -2.43

## HMLEEIIDVKRFLVENVRGVSEKTALAILSEFGDKTMDVLRNSPNELYRIKGMSGKRIEVIKDAIANATAS
  soluble fraction (log2): -0.568

## HMIGERIKRARAAAGLSMQALGKQVGISANMVKKYEHDQSMPSSGVLLKLATALSVRTEYFFRPA
  soluble fraction (log2): -1.38

## HMISEAEGTILQLLKEADGTLPFTYKSDADEIKKVFGMSKKNFKRTLTELIEAKKIQLLDDAIVL
  soluble fraction (log2): -0.632

## HMDDIVPHSTKNHIIKTFLSLMNSLDIITDKNKKSLNQNVHIIFNKFNFSKKEANLFIGVLNRIQKALK
  soluble fraction (log2): 0.602

## HMYVTGSAIRRLREKRKLTQAQLAAALSVSDKTVSKWETARGLPDITLLEPLARALQVSVPELLSGEEV
  soluble fraction (log2): -1.58

## HMDYKSNLQEMVQTTKKSVTYELVKEEGPAHDRTFTMNVIVDGIVLGTGTAKSKKEAEQEAAHQALEKKA
  soluble fraction (log2): -0.253

## HMKELVAGQTVRVHHSIGFGQTGTVTALNSLKTTLPNGLRTNTASILFQNNEKVVLPISNFDIIES
  soluble fraction (log2): -0.0164

## HMGSLNDQVMKYIDALPSAFNKRELDFLIERGVKEFALNGEYLEKAIINEYKLTADTYHRER
  soluble fraction (log2): 0.0903

## HMQKEMDIVLQINGKMRSNLKVSSTANDDEIIKTAIESDAYKKFSLGLRIQKTIIVPNRLINIVLEK
  soluble fraction (log2): -3.24

## HMEAEGLDFAPMPGEIGKKLWQEVSKEAWAGWLKHQTMLVNENRLSFVDPAARKYLTEQTEAYFFG
  soluble fraction (log2): 0.131

## HMAPRSSAVYFYLSQVALKKNQPRKAEAMARRGLTVSQDANRRRALWQLILRSGQAQNNTRVIREAQQAL
  soluble fraction (log2): -0.0212

## HMAVNVNGIHLSSQQHEALVSIWRTGRMPEPHAGQKPWLWIQALRRRGLVSGNALRLTDKGRHIVQLLQ
  soluble fraction (log2): -0.288

## HMQSAEMTLDREGQPVQVRVELTGNEARITFLSDQEQTREALDAGMAQLRELLEQQGMVLAGVTV
  soluble fraction (log2): -0.00816

## HMVDPRLRSLTPQERRILEHIAEGLTNRQIAEDMFLAEKTVKNYVTSILDKLGMDSRTQAAVYAATHPT
  soluble fraction (log2): -0.483

## HMELDLPLEELGLSTRVLHSLKEEGIESVRALLALNLKDLKNIPGIGERSLEEIKEALEKKGFTLK
  soluble fraction (log2): -0.103

## HMGAFAIHTASELSAGMRIRHERFGPGVITGIDTANPASGARIQVDFDNGTSKTLLLSYAKFQI
  soluble fraction (log2): -2.53

## HMGFKLQRYTTFVVERLKKYQDTPAAQMHDLLKEHYPDFPAVSPKTVYNYVMKIRQEHGLPAV
  soluble fraction (log2): -4.26

## HMLAGVDTLADRELEVFQMLGRGKSTKEIAQVLNLGESTVETYRARIKEKLQLRSAAELYLRAGQWVRDHG
  soluble fraction (log2): -1.09

## HMEREQPFAVTEAYRGMRLDRFLQAMLPRMSRAAIQDAIDNRVRLGSGRAAKASLRPAIGDTVFFGQRI
  soluble fraction (log2): -1.17
